The results in this text go back to paper PMC6761829 (Nature structural & molecular biology, 2019).

B2: Full-length Drosophila melanogaster spastin with a Walker B mutation (E583Q) (enzyme, UniProt Q8I0P1 1-758, looked up)
chain: MVRTKNQSSSSSASSSSTKSPIKSSSGAGSSGGGLGGRQSTHRSSSASNVAAVVAGGSSAAGGGSSSNRRSPGSSPDGDDDTTTTDDLTPTTCSPRSGHHHSYGGYSSSVHKQNLYVVSFPIIFLFNVLRSLIYQLFCIFRYLYGASTKVIYRPHRRDCNIEIVVQNSSKEQQQSLNHPSELNREGDGQEQQLSNQPQRFRPIQPLEMAANRPGGGYSPGPGDPLLAKQKHHHRRAFEYISKALKIDEENEGHKELAIELYRKGIKELEDGIAVDCWSGRGDVWDRAQRLHDKMQTNLSMARDRLHFLALREQDLQMQRLSLKEKQKEEAQSKPQKTREPMLAGMTNEPMKLRVRSSGYGPKATTSAQPTASGRKLTIGSKRPVNLAVANKSQTLPRNLGSKTSVGAVQRQPAKTAATPPAVRRQFSSGRNTPPQRSRTPINNNGPSGSGASTPVVSVKGVEQKLVQLILDEIVEGGAKVEWTDIAGQDVAKQALQEMVILPSVRPELFTGLRAPAKGLLLFGPPGNGKTLLARAVATECSATFLNISAASLTSKYVGDGEKLVRALFAVARHMQPSIIFIDQVDSLLSERSSSEHEASRRLKTEFLVEFDGLPGNPDGDRIVVLAATNRPQELDEAALRRFTKRVYVSLPDEQTRELLLNRLLQKQGSPLDTEALRRLAKITDGYSGSDLTALAKDAALEPIRELNVEQVKCLDISAMRAITEQDFHSSLKRIRRSVAPQSLNSYEKWSQDYGDITI

In data set [1] the target is B2. The data set is described as follows: AUC.
The data set “AUC” concerns the molecule itself. The data set is described as follows: AUC.

Where no end group is shown, it is not given here.

B1: VGSEEEEEEEEEE peptide labeled with Atto488 (peptide)
peptide: Atto488-VGSEEEEEEEEEE
As for B1, the binding result in data set [1] was “binds”.

For orientation: stoichiometry N means the number of molecules, sites or subunits per partner or assembly. For the molecule B2, the “stoichiometry N” value in the data set “AUC” came out at 6.
